According to the supplement of paper PMC10567573:

B1: CPN1 (parent)
chain: RGVRRTASTPTPDDKLFQKLAKVY
B2: GFOD1 (parent)
chain: SDDFCTFQMVLEGGVCCTVTLNFN
B3: SAT2 (parent)
chain: IIKKVAEVALDKGCSQFRLAVLDW

Variants of: B1
Assay: protein stability index of a GFP-peptide fusion (GPS, HEK-293T) (PSI 1-6); higher = more stable
Conditions: c terminus: a fixed tail appended
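Note: lentivirally expressed fusions sorted by FACS into six bins by GFP to DsRed ratio, PSI derived from sequencing read proportions per bin multiplied by bin number.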

Protein stability index, by site and new letter:
R1: V 2.34 | N 2.42 | H 2.58 | T 1.49 | A 1.4 | I 1.42 | P 2.27 | F 1.92 | Q 2.42 | L 2.88 | W 1.02 | M 1.93 | Y 2.93 | S 2.85 | C 1.4 | D 2.27 | K 1.89
R4: D 3.69 | A 2.01 | K 1.51 | C 3.17 | E 2.16 | N 1.95 | S 2.76 | L 1.92 | Y 1.54 | V 2.35 | I 2.56 | Q 1.76 | W 2.02 | H 2.17 | G 2.57 | M 2.26
R5: T 2.94 | F 1.57 | C 3.3 | Y 1.89 | E 2.57 | M 2.51 | L 2.07 | V 1.87 | P 2.79 | D 2.69 | G 1.7 | H 2.35 | I 2.33 | Q 2.23 | A 3.41 | W 2.2 | N 2.3 | K 1.85 | S 2.23
S8: Q 2.18 | M 1.44 | I 1.57 | H 1.82 | G 1.1 | F 1.7 | L 1.76 | D 2.19 | T 1.6 | W 3.14 | Y 3 | E 1.63 | K 2.85 | N 2.1 | A 2
T9: C 2.57 | M 1.45 | I 1.68 | K 2.57 | F 2.3 | G 3.11 | L 1.27 | A 2.07 | H 2.27
T6: I 1.67 | F 2.07 | M 2.02 | Y 1.59 | W 2.02 | R 1.99 | C 1.52 | P 1.23 | S 1.97 | Q 2 | N 1.56 | G 1.74 | L 1.73 | E 2.12 | K 1.61 | D 2.93 | H 1.49 | V 2.56
G2: C 2.22 | E 2.35 | Y 1.64 | S 3.13 | N 3.13 | R 1.66 | Q 1.94 | F 1.51 | H 1.87 | P 2.19 | V 2.84 | I 1.76 | K 2.38 | M 1.79 | L 1.24 | T 2.23 | D 2.26 | A 2.52
A7: W 2.59 | H 1.41 | N 2.54 | G 2.38 | C 1.57 | V 2.75 | R 1.71 | Y 2 | M 1.62 | T 2.07 | F 1.25 | Q 2.37 | E 2.05 | L 1.17 | S 1.97 | P 1.85 | D 2.05
V3: Y 2.27 | I 2.48 | L 2.24 | G 2.12 | T 2.89 | H 2.13 | Q 1.88 | R 2.84 | P 2.35 | W 2.66 | S 1.93 | E 2.24 | F 2.24 | N 2.2 | C 2 | D 2.58 | A 2.16 | M 1.84 | K 1.62

Variants of: B2
Assay: as above
Conditions: c terminus: a fixed tail appended

Protein stability index of substitutions, site by site:
T20: Y 1.97 | W 2.71 | P 1.49 | Q 3.57 | N 3.6
L21: M 2.22 | R 1.55 | E 1.63 | G 2.41 | N 1.35 | Q 1.93 | A 2.61 | S 1.84 | I 3 | P 2.02 | D 1.75 | F 2.73 | Y 1.69
F23: H 2.43 | G 2.44 | A 2.62 | S 2.62 | Y 3.05 | I 3.75 | E 3.16 | L 2.8 | P 1.56 | D 2.19 | N 4.1 | Q 1.24
N24: F 3.55 | R 3.43 | S 2.05 | L 3.23 | W 3.94 | Q 1.99 | T 2.47 | A 3.67 | P 3 | C 2.91
N22: W 2.88 | R 2.43 | P 2.9 | L 2.04 | Q 4.04 | C 3.25 | I 3.6 | H 2.62 | Y 2.33 | E 1.62 | D 2.09

Variants of: B3
Assay: as above
Conditions: c terminus: a fixed tail appended

Protein stability index, by site and new letter:
I2: D 1.74 | H 1.33 | S 1.98 | F 3.61 | K 2.16 | G 1.48 | N 2.16 | P 1.03 | W 1.81 | M 1.32
E7: Y 2.64 | P 2.75 | I 1.52 | L 2.75 | T 2.79 | M 1.78 | N 2.35
K4: E 3.05 | Q 2.45 | Y 2.95 | G 1.54 | W 3.9 | P 1.31
C14: D 2.61 | S 2.97 | Y 2.62 | N 4.56
W24: T 2.24 | P 1.65 | H 1.04 | S 3.1 | M 2.37 | N 2.22 | R 1.28 | D 1.37 | E 2.23
K3: P 1.86 | R 2.37
R18: M 1.8 | P 2.17 | Y 3.6 | S 3.36 | L 2.39
V21: Q 1.04 | L 4.52 | N 1.51 | H 2.52 | T 1.78 | G 3.79 | K 1.87 | W 3.21
Q16: E 3.74 | F 4.68 | W 1.51
L10: M 4.14 | S 1.05 | H 1.99 | D 1.75 | T 3.02 | C 3.52 | N 1.17
A6: E 2.19 | N 2.71 | Q 1.15
D23: V 2.16 | C 3.04 | M 2.98 | I 3.25 | Y 2.22 | F 1.82 | H 3.77
A9: N 2.8 | M 2.39 | I 2.87 | F 2.31
L19: V 3.77 | R 2.5 | N 2.69 | Y 2.61 | A 1.61 | H 3.62
F17: T 3.18 | M 4.35 | S 1.03 | P 3.25 | D 3.24 | K 2.69
L22: D 1.23 | F 1.86 | P 2.5 | T 3.66 | W 4.19 | K 2
D11: L 1.19 | Q 2.15 | Y 2.01 | P 4.36 | F 3.5
I1: H 2.14 | K 2.02 | D 2.44 | C 2.94 | S 2.28 | N 1.38 | Q 2.23 | T 1.86
G13: D 2.79 | C 2.45 | I 2.37
S15: D 2.74 | W 1.79 | Y 3.27 | L 3.77 | Q 1.56
V5: N 3.44 | A 3.31 | Y 1.04 | F 3.49 | G 3.27 | D 1.52
K12: W 4.21 | C 3.59 | M 2.73 | G 3.51
V8: C 1.99 | Q 2.94 | E 1.2 | P 1.7 | K 1.6 | H 2.58 | N 2.01 | W 2.76 | M 2.59
A20: T 2.13 | P 2.01
